Data reported in patent publication US20150196656A1 (IGF ONCOLOGY, published 2015).
One block for each binder: values may come before it.

Columns and labels:
type 1 IGF receptor = molecular target: T1, type 1 IGF receptor (human, UniProt P08069 31-1367); test: competition binding to IGF receptors against radioactive wild type IGF; approximate KD
T1 construct: whole, on cells; also called IGF-1 receptor; IGF-1R
Protocol: 200 ul of each of these was mixed rapidly with 1.8 ml of refold buffer. Refold buffer was 1.4 M urea, 100 mM glycine, 0.5 M NaCl, 19% ethanol, 0.5 mM GSSG, 4 mM GSH, pH 9.5.

dihydrofolate reductase = test: cell-based or functional assay; parameters: unit not given beside the values

T1 sequence (P08069 31-1367): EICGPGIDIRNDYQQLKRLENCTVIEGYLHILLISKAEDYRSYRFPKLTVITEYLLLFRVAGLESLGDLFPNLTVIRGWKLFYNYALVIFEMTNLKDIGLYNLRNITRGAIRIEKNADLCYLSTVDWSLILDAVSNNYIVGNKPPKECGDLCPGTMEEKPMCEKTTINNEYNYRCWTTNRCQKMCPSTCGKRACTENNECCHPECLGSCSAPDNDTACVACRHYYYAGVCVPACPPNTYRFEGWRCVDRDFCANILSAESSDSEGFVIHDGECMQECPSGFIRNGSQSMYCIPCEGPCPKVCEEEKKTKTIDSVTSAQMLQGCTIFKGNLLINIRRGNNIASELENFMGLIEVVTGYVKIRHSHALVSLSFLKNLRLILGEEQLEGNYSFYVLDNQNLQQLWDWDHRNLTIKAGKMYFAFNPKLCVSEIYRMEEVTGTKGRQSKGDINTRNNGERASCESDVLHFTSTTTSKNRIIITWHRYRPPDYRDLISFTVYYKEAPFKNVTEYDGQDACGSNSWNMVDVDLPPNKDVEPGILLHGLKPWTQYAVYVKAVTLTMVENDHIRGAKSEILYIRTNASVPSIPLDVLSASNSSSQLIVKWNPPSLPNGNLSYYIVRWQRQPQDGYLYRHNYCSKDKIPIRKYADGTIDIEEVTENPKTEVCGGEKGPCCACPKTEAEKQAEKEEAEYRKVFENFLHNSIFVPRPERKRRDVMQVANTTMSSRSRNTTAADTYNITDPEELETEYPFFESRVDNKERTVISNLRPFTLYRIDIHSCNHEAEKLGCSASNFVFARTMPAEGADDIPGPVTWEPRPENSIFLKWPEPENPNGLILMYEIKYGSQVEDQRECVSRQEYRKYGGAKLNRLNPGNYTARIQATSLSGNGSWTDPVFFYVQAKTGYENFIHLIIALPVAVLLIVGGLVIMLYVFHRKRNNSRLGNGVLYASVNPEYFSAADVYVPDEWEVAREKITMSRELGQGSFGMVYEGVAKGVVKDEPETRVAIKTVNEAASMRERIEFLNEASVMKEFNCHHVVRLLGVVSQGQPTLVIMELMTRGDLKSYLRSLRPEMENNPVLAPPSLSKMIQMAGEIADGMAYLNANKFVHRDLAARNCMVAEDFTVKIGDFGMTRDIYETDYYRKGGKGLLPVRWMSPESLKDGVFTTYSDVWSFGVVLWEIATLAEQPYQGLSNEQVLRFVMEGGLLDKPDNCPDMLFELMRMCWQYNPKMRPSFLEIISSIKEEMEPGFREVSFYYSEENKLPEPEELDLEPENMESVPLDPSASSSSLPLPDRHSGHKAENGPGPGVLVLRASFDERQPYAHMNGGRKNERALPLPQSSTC

B3: 764IGF (ligand)
chain: MVKGKHHHHHHNGKGKSKFVNQHLCGSHLVEALYLVCGDRGFYFNKPTGYGSSSRRAPQTGIVDECCFRSCDLRRLEMYCAPLKPAKSA
notes: also called His6-K5-IGF132
Kd (type 1 IGF receptor): ~100 nM

B4: LR3IGF-MTX (other)
chain: MFPAMPLSSLFVNGPRTLCGALVDALQFVCGDRGFYFNKPTGYGSSSRRAPQTGIVDECCFRSCDLRRLEMYCAPLKPAKSEA
modifications: methotrexate attached to amino groups; MTX:protein ratio of 2.8
IC50 (inhibition of dihydrofolate reductase) (dihydrofolate reductase): 99

Results, then the binder that gave them:

Kd (type 1 IGF receptor): ~2 nM
B1: 403IGF (ligand)
chain: MTSGHHHHHHSAGVNGFVNQHLCGSHLVEALYLVCGDRGFYFNKPTGYGSSSRRAPQTGIVDECCFRSCDLRRLEMYCAPLKPAKSA
notes: also called His6-IGF

Kd (type 1 IGF receptor): ~40 nM
B2: 785IGF (ligand)
chain: MVKQIESKTAFQEALDAAGDKLVVVDFSATWCGHCKMIKPFFHSLSEKYSNVIFLEVDVDDSQDVASESEVKSMPTFQFFKKGQKVGEFSGANKEKLEATINELVGSKSGHHHHHHSAKGFVNQHLCGSHLVEALYLVCGDRGFYFNKPTGYGSSSRRAPQTGIVDECCFRSCDLRRLEMYCAPLKPAKSA
notes: also called mutTrx-IGF132
